Target: RBD (a.a. 333-529) of SARS-CoV-2 S fused to the Fc region of IgG1 (SARS-CoV-2; human) (UniProt P0DTC2)
Assay: BLI, RBD-IgG1 captured on anti-human Fc sensor, dimeric sACE22 as analyte (avid)

## untagged sACE22.v2.4 manufactured in ExpiCHO-S cells (from UniProt Q9BYF1 19-732) (receptor)
  kon: 200000 M⁻¹ s⁻¹
